Legend:
Ramos B lymphoma cells = test: scFv apoptosis assay (cross-linked, 24 h, Annexin V/PI); assay type: cell-based, human
Protocol: Ramos B lymphoma cells were sequentially incubated with anti-Ramos scFv, anti-His mAb, and anti-mouse polyclonal Ab on ice (with intermittent washing to remove excess unbound antibody), and were incubated in a humidified atmosphere of 5% CO2 at 37° C. for 24 hours. Cells were then harvested and subjected to combined staining with Annexin V-AF488 (AV) and propidium iodide (PI). Cells were scored as viable (AV− PI−, filled circles FIG. 2C), early apoptotic (AV+PI−, open triangles FIG. 2C), or late apoptotic/necrotic (AV+PI+, open diamonds FIG. 2C), based on differential positivity for AV and PI staining (defined by square gates in FIG. 2B). […]
Lipopolysaccharide levels of recombinantly produced scFv fragments were reduced using Detoxigel columns according to manufacturer's instructions (Pierce Biotechnology, Rockford, Ill., USA). Remaining endotoxin levels were quantified by the LAL-amebocyte lysate assay (Cambrex Bioscience, Walkersville, Md., USA). […]
Apoptotic cells were, unless otherwise stated, detected by combined staining with Annexin V Alexa Fluor 488 (AV) and Propidium Iodide (PI) (both from Molecular Probes, Invitrogen) and subsequent flow-cytometric analysis, Cells were defined as viable (AV−/PI−), early apoptotic (AV+/PI−) or late apoptotic/necrotic (AV+/PI+). […]

Raji B lymphoma cells = test: as above; assay type: cell-based, human

B1: scFv B11: scFv clone isolated by differential biopanning, later converted to B11 IgG1 (protein)
scFv (part 1 of 2): EVQLLESGGGLVQPGGSLRLSCAASGFTFSNAWMSWVRQAPGKGLEWVAFIWYDGSNKYYADSVKGRFTISRDNSKNTLYLQMNSLRAEDTAVYYCARYSGWYFDYWGQGTLVTVSS
scFv (part 2 of 2): QSVLTQPPSASGTPGQRVTISCTGSSSNIGAGYDVHWYQQLPGTAPKLLIYDNNNRPSGVPDRFSGSKSGTSASLAISGLRSEDEADYYCQSYDSSLSAWLFGGGTKLTVLG
modifications: left off: small tags and cut ends
notes: scFv clone isolated by differential biopanning, later converted to B11 IgG1
apoptosis induction by scFv (Ramos B lymphoma cells): induced significant apoptosis | apoptosis induction by scFv (Raji B lymphoma cells): induced significant apoptosis
